Measured values from the supplement of paper PMC10201428.
± gives the standard deviation of the averaged measurements.

What follows are sequences tested on VchCAST RNA-guided transposition machinery (E. coli BL21(DE3) host, lacZ target) (assay: relative integration efficiency (T-LR orientation) vs wild-type transposon end (log2 (normalized fold change)); transposon end mutated: right end (5 bp flank + 75 bp right end); higher = more efficient transposition).
Method in brief: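 Co-transformation of E. coli BL21(DE3) combined a pUC57 mini-transposon donor, holding barcoded pools of 1549 left-end or 1849 right-end variants, with a T7-driven plasmid encoding a CRISPR array, tniQ-cas8-cas7-cas6 and tnsA-tnsB-tnsC. After plating with 0.1 mM IPTG at 37°C for 18 h, input plasmids and genomic integration junctions were PCR-amplified and Illumina-sequenced across two biological output replicates, with four reference barcodes. Relative integration efficiency is the normalised, log-transformed output/input barcode fold change.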
“ACATTTGTTTCGCCAACCATAAAATGATAATTACACCCATAAATTGATAATTATCACACCCATAAATTGATATTGCCTCTGATCATAGTCAGACCAACATTGCTACGACCCGTATTCGCACCGACAC” was tested, and the “relative integration efficiency (log2)” value was -3.75 ± 0.98. In the case of “ACATTTGTCGATACAACCATAAAATGATAATTACCACCCATACATTGATAATTATCACACCCATTTAACTATAACGCTCTGATCATAGTCAGACCAACATTGCTACGACCCGTATTCGCACCGACAC”, the “relative integration efficiency (log2)” value is reported as 0.0639 ± 0.32. For “ACATTTGTTGATACAACCATAAAATGAAAATTACACCCATAAATTGAAAATTATCACACCCATAAATTGAAATTGCCTCTGATCATAGTCAGACCAACATTGCTACGACCCGTATTCGCACCGACAC”, the “relative integration efficiency (log2)” value was 0.0682 ± 0.25. In the case of “ACATTTGTTGATACAACCATAAAATGATAATTACCCCCATCAATTGATAATTATCACACCCAATTTAACTATAACGCTCTGATCATAGTCAGACCAACATTGCTACGACCCGTATTCGCACCGACAC”, the “relative integration efficiency (log2)” value is reported as 0.506 ± 0.048. In the case of “ACATTTGTTGATACAACCATAAAATGATAATTACACCCATAAATTGATAATTATCACACCCATAAATTGATATTGCCTCTGTACCGTTCGTATAATGTATGCTATACCAAGTTATTCGCACCGACAC”, the “relative integration efficiency (log2)” value is reported as -0.0326 ± 0.059. “ACATTTGTTGATACAACCATAAAATGATAATTAATAACACCCATAAATTGATAATTATCACACCCATAAATTGATATTGCCTCTGATCATAGTCAGACCAACATTGCTACGACCCGTATTCGCACCG” was tested, and the “relative integration efficiency (log2)” value was 0.728 ± 0.12. For “ACATTTGTTGATACACCCATAAATTGATAATTACAACCATAAGTTGATATTTTTCACACCCATAAATTGATATTGCCTCTGATCATAGTCAGACCAACATTGCTACGACCCGTATTCGCACCGACAC”, the “relative integration efficiency (log2)” value was -0.56 ± 0.069. In the case of “ACATTTGTTGATACAACCATTAAATGATAATTCCACCCATACATTGATAATTATCACACCCAATTTAACTATAACGCTCTGATCATAGTCAGACCAACATTGCTACGACCCGTATTCGCACCGACAC”, the “relative integration efficiency (log2)” value is reported as 0.395 ± 0.29. For “ACATTTGTTGATACAACCATAATATGATAATTACACCCATAATTTGATAATTATCACACCCATAATTTGATATTGCCTCTGATCATAGTCAGACCAACATTGCTACGACCCGTATTCGCACCGACAC”, the “relative integration efficiency (log2)” value was -0.428 ± 0.015. For “ACATTTGTTGATACAACCATATAATGATAATAACACCGATAAAATGATAATTATCACACCCAATTTAACTATAACGCTCTGATCATAGTCAGACCAACATTGCTACGACCCGTATTCGCACCGACAC”, the “relative integration efficiency (log2)” value was 1.74 ± 0.093. In the case of “ACATTTGTTGATACAACCATACCATGATAATTACACCCATAAATTGATAATTATCACACCCATAAATTGATATTGCCTCTGATCATAGTCAGACCAACATTGCTACGACCCGTATTCGCACCGACAC”, the “relative integration efficiency (log2)” value is reported as -1.98 ± 0.24. With “ACATTTGTTGATACAACCATAAAATGATAATTAATAATTATTTATAATCAGCAACTTAACCACAAAACACCCATAAATTGATAATTATCAACAAACGCCCGGTCGCGGTACTCTGATCATAGTCAGA” the “relative integration efficiency (log2)” value was -2.48 ± 1.9. For “ACATTTGTTGATACAACCATAAAATGATCATTCACCCCTAAATTGATAATTATCACACCCACATTTAACTATAACGCTCTGATCATAGTCAGACCAACATTGCTACGACCCGTATTCGCACCGACAC”, the “relative integration efficiency (log2)” value was -0.712 ± 0.069. With “ACATTTGTTGATAAAACCATAAAATGATAATTAAACCCATAAATTGATAATTATCAAACCCATAAATTGATATTGCCTCTGATCATAGTCAGACCAACATTGCTACGACCCGTATTCGCACCGACAC” the “relative integration efficiency (log2)” value was -0.129 ± 0.36. “ACATTTGTTGATACAACCATAAAATGATAAGTACACCCATAAATTGATAAGTATCACACCCATAAATTGATATGGCCTCTGATCATAGTCAGACCAACATTGCTACGACCCGTATTCGCACCGACAC” was tested, and the “relative integration efficiency (log2)” value was 0.407 ± 0.12. With “ACATTTGTCGATACAACCATAAAACGATAATTACACCCATAAATTGATCATTATCACACCCAATTTAACTATAACGCTCTGATCATAGTCAGACCAACATTGCTACGACCCGTATTCGCACCGACAC” the “relative integration efficiency (log2)” value was 1.9 ± 0.036. For “ACATTTGTTGATACACCCATAAATTGATATTGCCAACCATAAAGTGATATTTATCACACCCATAAATTGATAATTACTCTGATCATAGTCAGACCAACATTGCTACGACCCGTATTCGCACCGACAC”, the “relative integration efficiency (log2)” value was -0.215 ± 0.15. In the case of “ACATTTGTTGATACACCCATAAATTGATAATTACAACCATAAAGTGATATTTATCACAACCATAAGTTGATATTTTCTCTGATCATAGTCAGACCAACATTGCTACGACCCGTATTCGCACCGACAC”, the “relative integration efficiency (log2)” value is reported as -0.743 ± 0.17. With “ACATTTGTTGATACAACCATAAAATGATAATTACTCTGATCATAGTCAGACCAACATTGCTACGACCCCACCCATAAATTGATAATTATCACACCCATAAATTGATATTGCGTATTCGCACCGACAC” the “relative integration efficiency (log2)” value was -0.249 ± 0.18. In the case of “ACATTTGTTGATACAACCATAAAATGATAATTACAACCATAAAATGATAATTATCAGTGGGTATTTAACTATAACGCTCTGATCATAGTCAGACCAACATTGCTACGACCCGTATTCGCACCGACAC”, the “relative integration efficiency (log2)” value is reported as 2.54 ± 0.061. With “ACATTTGTTGATACAACCATAAAATCATCATTCACCCATAAATTGATAATTATCACACCCACATTTAACTATAACGCTCTGATCATAGTCAGACCAACATTGCTACGACCCGTATTCGCACCGACAC” the “relative integration efficiency (log2)” value was -1.73 ± 0.67. For “ACATTTGTTCATACAACCCTAAAATGATAATTACACCCATAAATTGATAATTATCACCCCCAATTTAACTATAACGCTCTGATCATAGTCAGACCAACATTGCTACGACCCGTATTCGCACCGACAC”, the “relative integration efficiency (log2)” value was -0.953 ± 0.35. For “CAAAATGTAAAAAAAACCATACGTTGATTTTACGAAACCATACGCTGAAATAATCACAACCATACCTTGAAATTGCTTATAAAGTGTACAACACTTGAGAAAGTTTACTACAGGTATGCACCGACAC”, the “relative integration efficiency (log2)” value was < -10. With “ACATTTGTTGATACAACCATAAAATGATAATTACACCCATAAATTGATAATTATGTGTCCCATAAATTGATATTGCCTCTGATCATAGTCAGACCAACATTGCTACGACCCGTATTCGCACCGACAC” the “relative integration efficiency (log2)” value was 1.63 ± 0.16. “ACATTTGTTGATACAACCATAAAATGATAAGGACACCCATAAATTGATAATTATCACACCCATAAATTGATATTGCCTCTGATCATAGTCAGACCAACATTGCTACGACCCGTATTCGCACCGACAC” was tested, and the “relative integration efficiency (log2)” value was -0.358 ± 0.15.
